{"source": "the supplement of paper PMC9170038", "test_system": "MS2 coat protein", "test": "apparent KD of MS2 coat protein; designed switch direction (-1 OFF switch, 1 ON switch): -1; higher = weaker reporter binding", "outline": "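Designed RNA switches with common flanks were transcribed on Illumina chips by stalled E. coli RNA polymerase and titrated with SNAP-549-labelled MS2 coat protein, from 0.7 or 1.5 nM doubling to 3 µM, in Tris-HCl pH 7.5 buffer with KCl, MgCl2, BSA, DTT, tRNA and Tween-20. Steps lasted 0.8–1.5 h (lowest) to 10–20 min (highest). Titrations ran without input, with 200 uM small-molecule ligand, or with an oligonucleotide input. Normalised cluster fluorescence was curve-fitted, and apparent KD is the per-design median over clusters.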", "key": {"[1]": {"details": "input ligand: microRNA oligo, concentration not stated"}, "[2]": {"details": "Eterna round: R95, input ligand: FMN 200 uM"}, "[3]": {"details": "Eterna round: R95, input ligand: microRNA oligo, concentration not stated"}, "[4]": {"details": "Eterna round: R95, input ligand: none"}}}
{"sequence": "CCGGUGUGAGGAUAUCCAUCUGGAUCAGACUAGAUCCUGAUGGAGAAGGCACAUGAGGAUCACCCAUGUUACGG [Eli 4x 4.42] (Eterna round: R97, puzzle: Exclusion 4)", "values": [{"measurement": "apparent KD of MS2 coat protein", "setting": "input ligand: FMN 200 uM", "value": 567, "unit": "nM"}, {"measurement": "apparent KD of MS2 coat protein", "setting": "input ligand: none", "value": 656, "unit": "nM"}]}
{"sequence": "CCACUGUCAGGAUAUCGUGCAUAACGUUAACAAUUUAUGUGCGAGAAGGGACAUGAGGAUCACCCAUGUAAACG [Omei Ex4 A28PK4] (Eterna round: R97, puzzle: Exclusion 4)", "values": [{"measurement": "apparent KD of MS2 coat protein", "setting": "input ligand: FMN 200 uM", "value": 233, "unit": "nM"}, {"measurement": "apparent KD of MS2 coat protein", "setting": "input ligand: none", "value": 166, "unit": "nM"}]}
{"sequence": "AUAAUGUCAGGAUAUCAGUCGUACAGCUUCGGCUGUACGACUGAGAAGGGACAUGAGGAUCACCCAUGUGGUUA [E4/7-A1] (Eterna round: R97, puzzle: Exclusion 4)", "values": [{"measurement": "apparent KD of MS2 coat protein", "setting": "input ligand: FMN 200 uM", "value": 36.4, "unit": "nM"}, {"measurement": "apparent KD of MS2 coat protein", "setting": "input ligand: none", "value": 228, "unit": "nM"}]}
{"sequence": "GUAUAACAUGUAGGAUAUGCAUGGCGAAGCUAUGCAGAAGGACAUGAGGAUCACCCAUGUAAUAGCGUCUGCGUACAGAUGCAA [Mat - Exclusion NG 1 - Mod of JL - D91] (Eterna round: R96, puzzle: Exclusion NG 1)", "values": [{"measurement": "apparent KD of MS2 coat protein", "setting": "input ligand: FMN 200 uM", "value": 186, "unit": "nM"}, {"measurement": "apparent KD of MS2 coat protein", "setting": "[1]", "value": 29.4, "unit": "nM"}, {"measurement": "apparent KD of MS2 coat protein", "setting": "input ligand: none", "value": 38.7, "unit": "nM"}]}
{"sequence": "AAUAAUAGCGAGGAUAUCGUAUCGGAAACGAUACGAGAAGGCGUAACAUGAGGAUCACCCAUGUGUCCUCAAAA [Mat - Exclusion 6 - Eli Mod - D7] (Eterna round: R97, puzzle: Exclusion 6)", "values": [{"measurement": "apparent KD of MS2 coat protein", "setting": "input ligand: FMN 200 uM", "value": 2520, "unit": "nM"}, {"measurement": "apparent KD of MS2 coat protein", "setting": "input ligand: none", "value": 146, "unit": "nM"}]}
{"sequence": "GAGUUAGCGUGAGGAAUAUACAUGAGGAUCACCCAUGUUAGCUAAUAUAUUGCUCGUCUUAUAACAACAAUUAACUC [Alarm 10 - Jieux - Sensor, turn-off variant 1] (Eterna round: R97, puzzle: Sensor, turn-off variant 1)", "values": [{"measurement": "apparent KD of MS2 coat protein", "setting": "input ligand: FMN 200 uM", "value": 14.6, "unit": "nM"}, {"measurement": "apparent KD of MS2 coat protein", "setting": "input ligand: none", "value": 13.2, "unit": "nM"}]}
{"sequence": "CUGAGCUGAGGAUAUACAUGAGGAUCACCCAUGUUUUGUAGAUAGUGAAGAAGUAGAUGUAGAAGGCAGUUCGG [Mod of JL 24 - Jieux - Exclusion 3] (Eterna round: R97, puzzle: Exclusion 3)", "values": [{"measurement": "apparent KD of MS2 coat protein", "setting": "input ligand: FMN 200 uM", "value": 206, "unit": "nM"}, {"measurement": "apparent KD of MS2 coat protein", "setting": "input ligand: none", "value": 146, "unit": "nM"}]}
{"sequence": "GGUGUGAGGCAGGAUAUGCAAUAAGUAAGUAAAGCAGAAGGGUCUACAUGAGGAUCACCCAUGUGUGCGGUAGA [Ex6 #1] (Eterna round: R97, puzzle: Exclusion 6)", "values": [{"measurement": "apparent KD of MS2 coat protein", "setting": "input ligand: FMN 200 uM", "value": 249, "unit": "nM"}, {"measurement": "apparent KD of MS2 coat protein", "setting": "input ligand: none", "value": 163, "unit": "nM"}]}
{"sequence": "GUGAAGUAAGGAUAUAGUGGAAAAGAUAAGGUAUGAGAGUUCUAGAAGGUACAUGAGGAUCACCCAUGUUAGGG [JR_Exclu4_Sub085] (Eterna round: R96, puzzle: Exclusion 4)", "values": [{"measurement": "apparent KD of MS2 coat protein", "setting": "input ligand: FMN 200 uM", "value": 324, "unit": "nM"}, {"measurement": "apparent KD of MS2 coat protein", "setting": "[1]", "value": 212, "unit": "nM"}, {"measurement": "apparent KD of MS2 coat protein", "setting": "input ligand: none", "value": 360, "unit": "nM"}]}
{"sequence": "AAUACAAGCUAUUGAUCCCACAUGAGGAUCACCCAUGUUCCUGGCCGUGAGACAAGGUUGACAAUAGCUCGUCUUAU [Sensor-V1 #45] (Eterna round: R97, puzzle: Sensor, turn-off variant 1)", "values": [{"measurement": "apparent KD of MS2 coat protein", "setting": "input ligand: FMN 200 uM", "value": 285, "unit": "nM"}, {"measurement": "apparent KD of MS2 coat protein", "setting": "input ligand: none", "value": 299, "unit": "nM"}]}
{"sequence": "AGCUGUGGCCGAGGAUAUCUAUCCAAUAUAACCGAAAUAUAAUCGGACAUGAGGAUCACCCAUGUAGAGAAGGCGGUCUCAGCA [Eli eng2 - 093] (Eterna round: R96, puzzle: Exclusion NG 2)", "values": [{"measurement": "apparent KD of MS2 coat protein", "setting": "[1]", "value": 15.3, "unit": "nM"}]}
{"sequence": "CUCGUGUGAGGAUAUCCUCUUAUAUAACAAAGGUUGAAGCAGGAGAAGGCACAUGAGGAUCACCCAUGUGCAUA [EX4 C.6] (Eterna round: R97, puzzle: Exclusion 4)", "values": [{"measurement": "apparent KD of MS2 coat protein", "setting": "input ligand: FMN 200 uM", "value": 46.4, "unit": "nM"}, {"measurement": "apparent KD of MS2 coat protein", "setting": "input ligand: none", "value": 16.9, "unit": "nM"}]}
{"sequence": "UACAUGAGGAUCACCCAUGUUUUGUCGUGUAUGGUAUUUAUCUAGGAUAUCGUGUUAUUUAACCACGAGAAGGAGAGUAUCAAU [MOD3 Solution 21 by JMF] (Eterna round: R96, puzzle: Exclusion NG 3)", "values": [{"measurement": "apparent KD of MS2 coat protein", "setting": "[1]", "value": 21.5, "unit": "nM"}]}
{"sequence": "AGUAACCGUCACGAAAGUGAUGGUUACGCAAGUAAAUGUACAUGAGGAUCACCCAUGUCCUCAAUUGCUCGUCUUAU [Sensor 3 - 52] (puzzle: Sensor v3, turn-off variant 2)", "values": [{"measurement": "apparent KD of MS2 coat protein", "setting": "[2]", "value": 663, "unit": "nM"}, {"measurement": "apparent KD of MS2 coat protein", "setting": "[3]", "value": 167, "unit": "nM"}, {"measurement": "apparent KD of MS2 coat protein", "setting": "[4]", "value": 623, "unit": "nM"}]}
{"sequence": "CUUAAGUUAGGAUAUGCGCUACGGAAUCGUGGUUAUAGACAGCAGAAGGAACUUGAGGAUCACCCAAGUAAAUA [Inatsoce] (Eterna round: R97, puzzle: Exclusion 4)", "values": [{"measurement": "apparent KD of MS2 coat protein", "setting": "input ligand: FMN 200 uM", "value": 89.2, "unit": "nM"}, {"measurement": "apparent KD of MS2 coat protein", "setting": "input ligand: none", "value": 108, "unit": "nM"}]}
{"sequence": "CAUGGAUGUGAGCCGCAUUACAUGAGGAUCACCCAUGUCAACAAGCUUUUUGCUUGUCUUACGCGGCGGCACCAGAA [Getelexe] (puzzle: Sensor v3, turn-off variant 1)", "values": [{"measurement": "apparent KD of MS2 coat protein", "setting": "[2]", "value": 14.3, "unit": "nM"}, {"measurement": "apparent KD of MS2 coat protein", "setting": "[3]", "value": 8.03, "unit": "nM"}, {"measurement": "apparent KD of MS2 coat protein", "setting": "[4]", "value": 10.8, "unit": "nM"}]}
{"sequence": "UUUGUUUAUGUAGGAUAUGCCUGGCGUGCCUUUGCAGAAGGACAUGAGGAUCACCCAUGUAUUGCGGUCUGCGUUCAGAUCGCA [salish99_ExNG1_r4_038] (Eterna round: R96, puzzle: Exclusion NG 1)", "values": [{"measurement": "apparent KD of MS2 coat protein", "setting": "input ligand: FMN 200 uM", "value": 43.2, "unit": "nM"}, {"measurement": "apparent KD of MS2 coat protein", "setting": "[1]", "value": 30.2, "unit": "nM"}, {"measurement": "apparent KD of MS2 coat protein", "setting": "input ligand: none", "value": 29.4, "unit": "nM"}]}
{"sequence": "CACCGUUAGCGAGGAUAUCGUACAUGAGGAUCACCCAUGUAAUAAAUGAGAAUUUCGGAUGUAUGCGAGAAGGCGCGAAUCGGC [Ostracism 34 - Jieux - Exclusion NG 2] (Eterna round: R96, puzzle: Exclusion NG 2)", "values": [{"measurement": "apparent KD of MS2 coat protein", "setting": "[1]", "value": 36.6, "unit": "nM"}]}
{"sequence": "UCACGGGACUAAGGAUAUACAUGAACUAUUAUUGUAGAAGGUAGAAUGUUAGCUUAUACACUAAACAUGAGGAUCACCCAUGUA [JR_ExcNG1_Sub095] (Eterna round: R96, puzzle: Exclusion NG 1)", "values": [{"measurement": "apparent KD of MS2 coat protein", "setting": "[1]", "value": 26.9, "unit": "nM"}]}
{"sequence": "CCGCAAAUGCAGGAUAUCGUAUCGGAUACGAUACGAGAAGGGCAAACAUGAGGAUCACCCAUGUGUCCUAGCGG [Fiskers Ex 6 - 39] (puzzle: Exclusion 6)", "values": [{"measurement": "apparent KD of MS2 coat protein", "setting": "[3]", "value": 13.7, "unit": "nM"}]}
{"sequence": "UUUAAUUGUGACAUGGGUGACAUGAGGAUCACCCAUGUCACAAGCUUUUUGUUCGUCUUAUAAUUAACCCAUGUCAC [Stov1/13-B1] (Eterna round: R97, puzzle: Sensor, turn-off variant 1)", "values": [{"measurement": "apparent KD of MS2 coat protein", "setting": "input ligand: FMN 200 uM", "value": 37.8, "unit": "nM"}, {"measurement": "apparent KD of MS2 coat protein", "setting": "input ligand: none", "value": 123, "unit": "nM"}]}
{"sequence": "GAUUGCUCGUCUUGAAAACACAUGAGGAUCACCCAUGUAACUAGGGAAACCACGAUUAUAUUCGCUUUUCAGUGUAA [Eternabot (L2) Solution 2] (Eterna round: R97, puzzle: Sensor, turn-off variant 1)", "values": [{"measurement": "apparent KD of MS2 coat protein", "setting": "input ligand: FMN 200 uM", "value": 29.6, "unit": "nM"}, {"measurement": "apparent KD of MS2 coat protein", "setting": "input ligand: none", "value": 34.2, "unit": "nM"}]}
{"sequence": "ACAUGAGGAUCACCCAUGUUCGGCUGGUCCGUUUCGGCUGUCGAGGAUAUAGUUCGGUGUCCGCGCUAGAAGGCGGGAGCUGGC [Aenatbe mod 64] (Eterna round: R96, puzzle: Exclusion NG 3)", "values": [{"measurement": "apparent KD of MS2 coat protein", "setting": "input ligand: FMN 200 uM", "value": 167, "unit": "nM"}, {"measurement": "apparent KD of MS2 coat protein", "setting": "[1]", "value": 39, "unit": "nM"}, {"measurement": "apparent KD of MS2 coat protein", "setting": "input ligand: none", "value": 68.5, "unit": "nM"}]}
{"sequence": "AGGCUGUCAGGAUAUCUGCGCCGUGGUGCGCGGCGUUAUAAAGAGAAGGGACAUGAGGAUCACCCAUGUCCUCA [EX4 B.25] (Eterna round: R97, puzzle: Exclusion 4)", "values": [{"measurement": "apparent KD of MS2 coat protein", "setting": "input ligand: FMN 200 uM", "value": 79.7, "unit": "nM"}, {"measurement": "apparent KD of MS2 coat protein", "setting": "input ligand: none", "value": 19.4, "unit": "nM"}]}
{"sequence": "UAUUCUAGAUAGGAUAUACUUUUUUUUUUUUUCGUAGAAGGAUCUACAUGAGGAUCACCCAUGUUAUCAGCAGU [JR_E6_Sub011] (puzzle: Exclusion 6)", "values": [{"measurement": "apparent KD of MS2 coat protein", "setting": "[2]", "value": 27.5, "unit": "nM"}, {"measurement": "apparent KD of MS2 coat protein", "setting": "[3]", "value": 30.2, "unit": "nM"}, {"measurement": "apparent KD of MS2 coat protein", "setting": "[4]", "value": 22.4, "unit": "nM"}]}
